Measured values reported in patent US20030223996A1 (published 2003).

T1: Tumour Necrosis Factor-beta (human, UniProt P01374 35-205)
T1 construct: also called TNFβ; TNF-β
T1 sequence (looked up): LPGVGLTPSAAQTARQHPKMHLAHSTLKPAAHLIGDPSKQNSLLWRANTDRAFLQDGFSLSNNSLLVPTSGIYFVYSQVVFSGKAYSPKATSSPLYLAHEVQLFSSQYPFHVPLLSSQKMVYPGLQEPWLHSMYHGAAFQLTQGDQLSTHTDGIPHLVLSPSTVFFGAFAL

B1: I016F04 (scFv)
scFv: QVQLQQSGSELKKPGASVKVSCKVSGYSLTKMSMHWVRQSPGEGLEWVGGIDPETRQPVYAQKFQGRVTITKDTSASAAYMELSSLGSEDTALYYCARATYDPLTGYSFDGFDIWGQGTLVTVSSGGGGSGGGGSGGGGSQSVLTQPASVSGSPGQSITISCTGTSSDVGGYNYVSWYQQHPGKAPKLMIYEGSKRPSGVSNRFSGSKSGNTASLTISGLQAEDEADYYCSSYTTRSTRVFGGGTKLTVLG
B2: I082H08 (scFv)
scFv: EVQLVESGGGLVQPGGSLRLSCAASGFTFSDYGMHWVRQRPGKGLEWIAFIGSDGSNKYYGDTVKGRFTISRDNAKNSLYLQMNSLRAEGTAVYYCARDWDMDVWGQGTMVTVSSGGGGSGGGGSGGGGSSHVILTQPRSVSGSPGQSVTISCTGTSSDVGGYHYVSWYQQHPGKAPRLMIYEVTKRPSGVSNRFSGSKSGNTASLTISGVQAEDEADYYCSSYTSASTVIFGGGTKLTVLG
B3: I099D03 (scFv)
scFv: QVQLVQSGAEVKKPGASVRVSCKSSGYTFTNYGISWVRQAPGQGLEWMGWISNNNGKTYYAQKVQGRVTMTTDTSTSTDYMELRGLRSDDTAIYYCARDNGGGTIGFDYWGRGTLVTVSSGGGGSGGGGSGGGGSAQAVLTQPSSVSGAPGQRVTMSCTGSSSNIGAGYDVHWYQQLPGTAPKLLIYDNTNRPSGVPDRFSGSRSGTSASLAITGLQAEDEADYFCQSYDITLSAVFGTGTKVTVLG
B4: I050A07 (scFv)
scFv: QVQLVQSGAEVKKPGASMKVSCKASAGRASAYGFAMHPIHWVRQAPGQGLEWMGWINGGTGNTKYSEKFLGRVTMTSDTSATTAYMELSSLRSEDTAVYYCARQDNDPLTGYKLGFDYWGKGTLVTVSSGGGGSGGGGSGGGGSAQSVVTQPPSVSGAPGQRVTISCTGSSTNVGAGYGVHWYQQFPETAPKLLIYGGSNRPSGVPDRFSGSQSGTSASLAITGLQAEDEADYYCQSYDTTLSGYVFGTGTKVTVLG
B5: I001C09 (scFv)
scFv: GVQLVQSGPEVKKPGASVKVSCTASGYTFTSYGVSWVRQAPGQGLEWIGWISAHNGQTKYAEKFQGRVTMTRNTSISTAYMELSSLRSEDTAVYYCARDGSYDILTGYYIDNYMDVWGKGTMVTVSSGGGGSGGGGSGGGGSSELTQDPAVSVALGQTVRITCQGDSLRSYYTNWFQQKPGQAPLLVVYAKNKRPSGIPDRFSGSSSGNTASLTITGAQAEDEADYYCHSRDSSGNHVLFGGGTKLTVLG
B6: I079E02 (scFv)
scFv: QVQLVQSGAEVKKPGSSVKVSCKASGGTFSSYAISWVRQAPGQGLEWMGGIIPIFGTANYAQKFQGRVTITADKSTSTAYMELSSLRSDDTAVYYCARDSGSYYYDAFDIWGKGTMVTVSSGGGGSGGGGSGGGGSDIVMTQSPSTLSASVGDRVTITCRASQGISSWLAWYQQKPGKAPKLLIYAASSLQSGVPSRFSGSGSGTDFTLTISSLQPEDFATYYCQQANSFPLTFGGGTKVEIKR

Legend:
[1] = target: T1, Tumour Necrosis Factor-beta; test: phage ELISA
Description: (§1) To determine the specificity of the 48 scFvs, a phage ELISA was performed against human and mouse BLyS, and a panel of related and unrelated human antigens: Fas ligand, TRAIL, TNFα, TNFβ, and PBS. The: Fas ligand, TRAIL, TNFα, and TNFβ antigens were obtained from R&D Systems, Minneapolis, Minn. Individual E. coli colonies containing phagemid were inoculated into 5 ml 2YTAG and incubated at 37° C. for 4 hours, shaking. M13KO7 helper phage (Pharmacia) was added to each tube to a MOI of 10 and incubated […] 1 hour, the first 30 minutes static and the final 30 minutes with gentle shaking. Cells were pelleted by centrifugation at 3,500 rpm for 10 minutes and the supernatant discarded. Cell pellets were resuspended in 5 ml 2TYAK and incubated at 30° C. overnight with shaking. The next day, the cells were pelleted by centrifugation at 3,500 rpm for 10 minutes. The phage-containing supernatant (5 ml) was carefully transferred to a fresh tube, 1 ml of 6MPBS was added, and the tube was incubated at room temperature for 1 hour to pre-block the phage prior to ELISA.
(§2) All antigens were coated at 1 μg/ml. ELISAs were performed essentially as described in Example 2. The only exception to this being the detection of phage antibody binding to mouse BLyS where the step involving incubation with the HRP-labelled anti-mouse polymer was omitted. Binding to mouse BLyS was detected with TMB as in Example 2.

[2] = target: T2, mouse membrane-bound BLyS on P388 plasma membranes (mouse, UniProt Q9WU72 1-309); test: competition phage ELISA on P388 membranes
T2 construct: whole, on cells; Plasma membrane preparations, not intact cells
T2 sequence (Q9WU72 whole entry): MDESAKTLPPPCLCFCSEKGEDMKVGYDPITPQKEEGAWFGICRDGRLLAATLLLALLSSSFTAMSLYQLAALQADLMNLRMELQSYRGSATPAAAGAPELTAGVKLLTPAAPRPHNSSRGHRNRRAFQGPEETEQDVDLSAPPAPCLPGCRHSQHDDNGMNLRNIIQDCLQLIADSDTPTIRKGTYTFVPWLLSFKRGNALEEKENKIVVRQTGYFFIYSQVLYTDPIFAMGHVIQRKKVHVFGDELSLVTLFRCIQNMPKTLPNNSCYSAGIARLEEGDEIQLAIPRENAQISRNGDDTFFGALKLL
Description: The ability of the 5 scFvs listed in Table 8 to also recognize murine membrane-bound BLyS was determined using a competition ELISA. This assay assesses the ability of test phage scFvs to bind to the membrane-bound form of BLyS on the murine cell line, P388, plasma membranes in the presence of different forms of competing human BLyS. Competing BLyS was either presented as the His-tagged form of BLyS, or soluble BLyS. ScFvs that recognize mouse membrane-bound BLyS would give an ELISA signal on the P388 plasma membranes that is competed out by pre-incubation with HIS-tagged BLyS but not by pre-incubation with soluble BLyS.
P388 plasma membranes (50 μl per well) were coated at 10 μg/ml in PBS onto Falcon 96-well plates overnight at 4° C. The method is otherwise essentially as described Example 16.

[3] = target: T3, Tumour Necrosis Factor-alpha (human, UniProt P01375 77-233); test: phage ELISA
T3 construct: also called TNFα; TNF-α
T3 sequence (P01375 77-233 limits assumed): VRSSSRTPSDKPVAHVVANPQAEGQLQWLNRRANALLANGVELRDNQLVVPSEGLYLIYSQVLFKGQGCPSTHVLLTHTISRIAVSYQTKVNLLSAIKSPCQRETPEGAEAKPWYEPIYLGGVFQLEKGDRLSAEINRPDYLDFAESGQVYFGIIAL
Description: as §1, §2

Row | Binder | binding result [2] | binding result [3] | other results
1 | B1 | – | – | binding result [1]: no binding
2 | B2 | binds | – | –
3 | B3 | binds | – | –
4 | B4 | – | no binding | –
5 | B5 | – | no binding | –
6 | B6 | binds | – | –
